{"source": "paper PMC11605055", "binders": {"B1": {"name": "X chromosome PC motif 12 bp (dsDNA)", "DNA 1": "TTGGTCAGTGCA", "DNA 2": "TGCACTGACCAA"}, "B2": {"name": "X PC motif TG to CA (dsDNA)", "DNA 1": "TTGGTCAGCACA", "DNA 2": "TGTGCTGACCAA"}}, "molecular_target": "T1, HIM-8 ZF1-2-CTD (Caenorhabditis elegans (N2), UniProt O18068 223-361)", "T1 sequence": "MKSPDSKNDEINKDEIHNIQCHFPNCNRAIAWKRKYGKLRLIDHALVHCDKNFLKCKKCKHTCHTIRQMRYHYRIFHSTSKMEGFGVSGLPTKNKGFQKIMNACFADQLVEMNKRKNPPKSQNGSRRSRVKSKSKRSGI", "assay": "ITC", "data": [{"binder": "B1", "values": [{"measurement": "Kd", "value": "430 ± 10", "unit": "nM"}]}, {"binder": "B2", "values": [{"measurement": "binding result", "value": "no binding"}]}]}
